Values quoted from earlier work in publication PMC4301871, “WW Domains of the Yes-Kinase-Associated-Protein (YAP) Transcriptional Regulator Behave as Independent Units with Different Binding Preferences for PPxY Motif-Containing Ligands” (PLoS ONE, 2015).
Where two headings read alike, the source gives them in different places.

Key:
p53BP2 (Homo sapiens) [1] = target: p53BP2 (Homo sapiens)
p53BP2 (Homo sapiens) [2] = target: p53BP2 (Homo sapiens); remark: listed apart in the source

YAP WW2, sequence (P46937 227-266): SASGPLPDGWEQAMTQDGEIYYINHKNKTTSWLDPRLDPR
YAP WW1, sequence (P46937 168-207): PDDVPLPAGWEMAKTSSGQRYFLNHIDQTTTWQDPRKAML

Substance	Kd (p53BP2 (Homo sapiens) [1])	Kd (p53BP2 (Homo sapiens) [2])
YAP WW2 (from UniProt P46937)	12 µM	
YAP WW1 (from UniProt P46937)		1.8 µM
